Data taken from the DeepSol protein solubility set.

assay: soluble on expression in E. coli; label from the status in PepcDB or PDB records

| Sequence | soluble on expression in E. coli |
| --- | --- |
| MGSDKIHHHHHHMIPSQHFQSTPTVQFDLLTYMIGSYHYNWHPQIELLWLLQGTVEVNVDGTRHQLHANDLILINANRGHATFALTPECIALRLHILPDFYTNQGIDLSSGAFLLNSVTTPQHRDYQTIRQILAQLYLGLHQQDWPIFDLNALYFQLTNLLHHDFFDTGITMTYPQPKTQSSLNRVIDYINQAYDRPITLNEAAKISHYSPAYLSRIFKAELGLNFYEYLTRCRLQHAIYDLENPTTRVADLALANGFQEVKSFNLMFKKHFGQTPSSYRQHLSHGQRPEYDQFKQPLTPTQTTIVQKQLNHWAQLTSTDQLSACESCMYKLHFQEYQALKQKIAQLKTLLNQ | not soluble |
| MGSDKIHHHHHHVFDALVIGSGPAGLAIAAELAQRGLKVQGLSPVDPFHPWENTYGIWGPELDSLGLEHLFGHRWSNCVSYFGEAPVQHQYNYGLFDRAQLQQHWLRQCEQGGLQWQLGKAAAIAHDSHHSCVTTAAGQELQARLVVDTTGHQAAFIQRPHSDAIAYQAAYGIIGQFSQPPIEPHQFVLMDYRSDHLSPEERQLPPTFLYAMDLGNDVYFVEETSLAACPAIPYDRLKQRLYQRLATRGVTVQVIQHEEYCLFPMNLPLPDLTQSVVGFGGAASMVHPASGYMVGALLRRAPDLANAIAAGLNASSSLTTAELATQAWRGLWPTEKIRKHYIYQFGLEKLMRFSEAQLNHHFQTFFGLPKEQWYGFLTNTLSLPELIQAMLRLFAQAPNDVRWGLMEQQGRELQLFWQAIAAR | not soluble |
| MGSDKIHHHHHHMRIFTASLATETNTFSPVPTDRASFEMAFYAAPGKHPETPTLCSSPIVALRKRAAAEGLTVIEGTATWAEPGGLLQRQAFEELRDEILDQLKAAMPVDAVVLGLHGAMVAQGYDDCEGDLLERVRAIVGPGVLVASEFDPHSHLTPKRVQNLNIFASFLEFPHTDFYERGEHVVELALDALKGRTKPVISTFDCRMIAVLPTSKEPMRSFVDRIKALQGKDGILSISVIHGFMAADVPEMGTRILVVTDNDPQAGAALAAALGRELIAMREQTSMAMLDTDQGIDRALAAHAANPSKPAVIADVWDNPGGGVAGDGTYILRRLIERGVNNAGIATIWDPIAVTFCHAAGEGAVIDLRFGGKSGPLGGEPIDARVTVLKVANEGWQSFGPSRVTLGPSAVVRIEDTGIDIILNTNRTQTFEPDIFSNLGIDPMTKNVLVVKSTNHFHAGFAPVAAEIIYVDAPSSYPSNPRTTNYRKLNRAIWPRVEDPW | not soluble |
| MQNAIKTDASNSTVEARDEEPVAANDNKPASNPGTSVTEDSVAYIFASTYRDTLRFCHSTGAWFEWDGSYWRRNEVGLAAHHVRVMARDMSQGLSPKALATIRKRSFASGVEGFARNDPTFAVTIEAWDRDPFLLGTPDGTVDLRTGKMRAADPADGITKLTSTAPSAQADCPLWLRFLQDATGGDGEMIRFLQQWCGYCLTGDTREHALVFVHGDGGNGKSVFLNTTSYILHDYATTASMDTFVASRSDRHPTDLAMLRGARLVSASETEEGRAWAESRIKQMTGGDAISARFMRQDFFTFQPQFKLFVVGNHQPALHSVDAAARRRFNIVPFTRKPTKPDRELEAKLRGEAPAILRWMVDGCRDWQRNGLVRPASIVEATETYFAEQDTFGQWLKDACRVEPDNRSISDFVADLFKSWTDYAEASGERPGSQKGFVQSLTKSGFKKGQRVRGGQLYIGLQLLRQAEKEPSVRDLEHHHHHH | soluble |
| MSVDETITFSLAVKNTGNREGQEIVQLYIRDIKSSLPRPVKELKRFKKVNLMPGEEKIVSLSIDKEALSFFDAERHEWICEPGKFEAIIAASAMDIKDVLKFELKLEHHHHHH | not soluble |
| MTMPLRGLGPPDDTGVREVSTGDDHHYAMWDAAYVLGALSAADRREFEAHLAGCPECRGAVTELCGVPALLSQLDRDEVAAISESAPTVVASGLSPELLPSLLAAVHR | soluble |
| MAAGIVASRRLRDLLTRRLTGSNYPGLSISLRLTGSSAQEEASGVALGEAPDHSYESLRVTSAQKHVLHVQLNRPNKRNAMNKVFWREMVECFNKISRDADCRAVVISGAGKMFTAGIDLMDMASDILQPKGDDVARISWYLRDIITRYQETFNVIERCPKPVIAAVHGGCIGGGVDLVTACDIRYCAQDAFFQVKEVDVGLAADVGTLQRLPKVIGNQSLVNELAFTARKMMADEALGSGLVSRVFPDKEVMLDAALALAAEISSKSPVAVQSTKVNLLYSRDHSVAESLNYVASWNMSMLQTQDLVKSVQATTENKELKTVTFSKL | soluble |
| MFEKEKEGLIEVQNVYEIAPEDGTIIGMATEEEMEIAAELELQYYAHSRLLEANIQLDGSSYKELLQEFQEYERKSMSFWRAIHKRLAVPWAWVLRIDVANGPIYVSNGSSYYEEIDDEEDYE | not soluble |
| MGSDKIHHHHHHMRLAAATGFSFVGLRVIAVTPNERVYDLSPGSPLLAATQQALKETALYVLDTEFLQVNADTTREAWLPALEAAGALGAKTFTIAAGDDNIAPLTDTIGAMVDDARDFGVTPALEPISYRSVHSIPQAAAIARDSGGKVVADTLHMARFGATPEELTDVTDVLGVLQLCDSPLQRPADLDGLVTESRSLRLAPGEGEQNLLTFVNALDSNVPLSVETPNDGEVASRGDAGWINHLYNTTQALLEKIEEAV | not soluble |
| MLITKNQAEKWFDNSLGKQFNPDLFYGFQCYDYANMFFMLATGERLQGLYAYNIPFDNKAKIEKYGQIIKNYDSFLPQKLDIVVFPSKYGGGAGHVEIVESANLNTFTSFGQNWNGKGWTNGVAQPGWGPETVTRHVHYYDNPMYFIRLNFPNNLSVGNKAKGIIKQATTKKEAVIKPKKIMLVAGHGYNDPGAVGNGTNERDFIRKYITPNIAKYLRHAGHEVALYGGSSQSQDMYQDTAYGVNVGNKKDYGLYWVKSQGYDIVLEIHLDAAGESASGGHVIISSQFNADTIDKSIQDVIKNNLGQIRGVTPRNDLLNVNVSAEININYRLSELGFITNKNDMDWIKKNYDLYSKLIAGAIHGKPIGGVVASEVKAPVKNEKNPPVPAGYTLDKNNVPYKKEQGNYTVANVKGNNVRDGYSTNSRITGVLPNNTTITYDGAYCINGYRWITYIANSGQRRYIATGEVDIAGNRISSFGKFSAV | soluble |
| MKRVMFHAKIHRATVTQADLHYVGSVTVDQDLLDAAGILPFEQVDIYDITNGARLTTYALPGERGSGVIGINGAAAHLVKPGDLVILVAYGVFDEEEARNLKPTVVLVDERNRILEVRKG | soluble |
| MTNYVKKVSIEDFGCQFLHTAHWNNRLRTTGGRFFPNDRHLDFNPKIYREFGIDIFRKIVRHELCHYHLYIQGKGYQHRDKAFKELLEKVDGLRYTPRVTAVKVNYHHYSCQSCGQVYRRRRRVNLRKFACGYCHGRLIESFLEHHHHHH | not soluble |
| MGSDKIHHHHHHMRKFNLTALSVMLALGLTACQPPEAEKAAPAASGEAQTANEGGSVSIAVNDNACEPMELTVPSGQVVFNIKNNSGRKLEWEILKGVMVVDERENIAPGLSDKMTVTLLPGEYEMTCGLLTNPRGKLVVTDSGFKDTANEADLEKLSQPLADYKAYVQGEVKELVAKTKTFTEAVKAGDIEKAKSLFADTRVHYERIEPIAELFSELDPVIDAREDDFKDGAKDAGFTGFHRIEYALWVEKDVSGVKEIAAKLMTDVEALQKEIDALAFPPGKVVGGASELIEEVAGSKISGEEDRYSHTDLSDFQANVDGSKKIVDLFRPLIEAKNKALLEKTDTNFKQVNEILAKYRTKDGFETYDKLGEADRKALQASINALAEDLAQLRGILGLK | not soluble |
| MNATPEKADDLIVVGKIFSVHGVRGEVKVYSFTDPIENLLDYPRWTLRHEGKVKQVELVSGRGSQKGLVVKLKGLDDRDEARLLSGYEICIPRSLLPNLAADEYYWYQLVGLKVINQDEQLFGKVDHLLETGANDVMVVKPCAGSLDDRERLLPYTEQCVLAIDLEAGVMRVEWDADFLEHHHHHH | soluble |
| MYQVIRMYGAMEPWWFLDDWKEDITKVLEFDNYHEALQCYQKEWAKLRRRYSDFNSHGDIMTAFWNKQDQHWCEECGDYVQRYHSLALLTDWQETPSSWFRPTFTKQLEHHHHHH | soluble |
| INLPWYLSPIAIPVTQILSAVSPLPRYAPGHKPYFPKPFEDNPLSQSAGRYQWFRNLYTEKPELQVGGPSTRWVWQGLMAAKQCFLLTRQVKVPVLLVQAGNDRIVSNLAQKRFIEKLRKTNPHAALLSIEGAQHEILFETDQYRNQALDAIFRFMDDPTSSSDEKMQ | not soluble |
| MTVKAMALNTNQLFAYLNRGDIAEFKFSPLFTTLFFPNVATFSTQNIMLDTLDIEEVTMSAFCSPMVGSQVQRDKGYETSTIKPGYMKPKHEIDPTKTIMRMAGEDPAQLNDPTYRRMRLITGNMRRQINAIKARVEWLAVNAVTTGKNIIEGEGIERYEIDWKIPEKNIIEQADGKKWSEQDKETHYPIYDIELYADQAGCPANVMIMGAEVWRTLRSFKKFRELYDLSRGSESAAELACKNLGEVVSFKGYLGDLALIVYSGKYTDSDGTEKYFLEPDLLVLGNTNNKGLVAYGAIMDQEAVRTGATQNMFYPKNWIEDGDPAIEYVQTHSAPQPVPADIRKFVTVKIA | soluble |
| MQRERTAESSLRVISKEKNSITVEMINYDNTLLRTLVEEILKDDQVDEARYYIKHPVIDNPQIYVRVKSGKPQSAIKRAVRKLSKLYEDLGTQFQKEFQRYESDHMIKAVE | soluble |
| MAHHHHHHMQIGLAGCSSSLHTSPSSGSAAGSGFYGARGQEAAASATVNSSGANGLCAGATMSSPSATPTLPPLPSTMDEPVDLFPLTPSVSMLQRHSKRSGRLLNESETMQEKHGQEYRFLVPWLAYAIDCTIAAHEVLRQKHGIPAHVSSPASPSANTLNGATDVKRSSRGSANGDPTYADTAGGSSGSGQAALPSPQAELNAFSTREVPAISVHDYLKRIVKYTYVSPSVLVCGCLYLDRLLCMHPCMLLHPYNVFKLFLTSTRMASKIMDTRTLNNHDFSVVGGVTNDDLNALEFLMVELLQNRLYFSRDTFDEYCRPLRLQAAHLTEEASDWGAETAMETPVETRSGVQHQPTRPFLARCNGSNTRSRRSSILSQNEYSVSIASQSGVSPLRSASRPAFPPSASTARSISVDTESIGPARAPASRGGSASTSAPRHPLGTSYSPALPHVPHTAANGGSSPALGAMGGLSGRGASGEDMLRVATHTNSIYQSSNGVWTGQTPPDSVTVLVGVEERGDERARSISLSAPRCGATTSWDATGRPSRLLAASTSTMAGLCTAALNGGRGGYESSPNVCAAPTYNRASASSSRGITASAEDFGAGSMVISYSDRTPTRRAFSHASREGIALPPVVCSGRSERSASVIGVAAQGQRLPPPPDQPRV | not soluble |
| MGSDKIHHHHHHMAQRVGPTRRGVDGTPVEPLSIKHPNAAGIDIGGASHYVAVPPDRVGKGEPAVREFGPHTEDLVAVANWLCACRIDTVALESTGVYWIALYELLQARGFEVWLVDAKSVRHVKARKSDVLDCQWLQQLHSFGLLSQAHRPDEQVCALREMSRLRDITIDERARHTQRMQKALTQMNVQLTNVITDITGETGMNIIRAIVAGGATAWPSRS | not soluble |
| MTAVETKKQYLTVFKEDGIAEIHLHINKSNSYDLEFYKEFNAAIDDIRFDPDIKVVIVMSDVPKFFSAGADINFLRSADPRFKTQFCLFCNETLDKIARSPQVYIACLEGHTVGGGLEMALACDLRFMGDEAGKIGLPEVSLGVLAGTGGTQRLARLIGYSRALDMNITGETITPQEALEIGLVNRVFPQAETRERTREYARKLANSATYAVSNIKLAIMNGKEMPLNVAIRYEGELQNLLFRSEDAKEGLSAFLEKRQPNWKGI | soluble |
